From article PMC3988878, “Ultrastructural characterisation of Bacillus subtilis TatA complexes suggests they are too small to form homooligomeric translocation pores” (Biochimica et Biophysica Acta, 2013)

Target: the molecule itself
Experiment: SEC; Superdex 200 HR 10/30, calibrated; 240 μl of concentrated Talon eluate; 20 mM Trizma, 150 mM NaCl, 0.02% DDM; 0.5 ml/min; fractions immunoblotted for the His-tag

B1: B. subtilis TatAd with a C-terminal His-tag (natural protein, UniProt O31467 1-70, looked up)
chain: MFSNIGIPGLILIFVIALIIFGPSKLPEIGRAAGRTLLEFKSATKSLVSGDEKEEKSAELTAVKQDKNAG
notes: TatAd, Bacillus subtilis, product of the tatAd-his gene in pBAD24 (pBAd-His); also called TatAd-His; TatAd complex; not shown: His6, C-terminal, kept
binding result: binds
